Experimental findings from US20200199241A1 are described below.

One test has as its target human FcγRIIa(R) (human) (UniProt P12318). Kind of test: SPR (Biacore).
Test [1] addresses human FcγRIIIa(F) (human) (UniProt P08637). Kind of test: SPR, captured antibody. In general terms: Surface plasmon resonance follows binding to a sensor surface in real time, without labels.
The target is the same in test [2]. Kind of test: SPR (Biacore).
For a further test, the target named is human FcγRIIa(H) (human) (UniProt P12318). Kind of test: SPR (Biacore).
The target of test [3] is FcγRIIb (human) (UniProt P31994). As to the kind of experiment: SPR (Biacore).
Test [4] shares this target. As to the kind of experiment: SPR, captured antibody.

Sequence of human FcγRIIa(R) (human) (P12318 other isoform, or with tags, fused parts or gaps limits assumed): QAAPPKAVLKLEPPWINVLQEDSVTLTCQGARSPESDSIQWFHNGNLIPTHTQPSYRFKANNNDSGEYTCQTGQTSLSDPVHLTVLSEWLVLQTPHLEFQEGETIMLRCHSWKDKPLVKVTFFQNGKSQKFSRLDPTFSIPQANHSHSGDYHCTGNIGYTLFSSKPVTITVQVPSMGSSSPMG
Sequence of FcγRIIb (human) (P31994 43-217 limits assumed): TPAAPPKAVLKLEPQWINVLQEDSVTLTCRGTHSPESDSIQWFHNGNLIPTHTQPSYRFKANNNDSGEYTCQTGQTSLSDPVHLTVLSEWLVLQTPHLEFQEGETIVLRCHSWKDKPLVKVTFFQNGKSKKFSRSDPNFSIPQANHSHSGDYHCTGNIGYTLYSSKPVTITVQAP
Sequence of human FcγRIIa(H) (human) (P12318 other isoform, or with tags, fused parts or gaps limits assumed): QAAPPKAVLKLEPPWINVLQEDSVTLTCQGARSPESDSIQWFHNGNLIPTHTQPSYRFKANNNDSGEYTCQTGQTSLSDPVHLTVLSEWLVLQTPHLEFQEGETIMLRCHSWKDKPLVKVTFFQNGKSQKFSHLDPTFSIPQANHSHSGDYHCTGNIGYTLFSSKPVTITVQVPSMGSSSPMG
Sequence of human FcγRIIIa(F) (human) (P08637 other isoform, or with tags, fused parts or gaps limits assumed): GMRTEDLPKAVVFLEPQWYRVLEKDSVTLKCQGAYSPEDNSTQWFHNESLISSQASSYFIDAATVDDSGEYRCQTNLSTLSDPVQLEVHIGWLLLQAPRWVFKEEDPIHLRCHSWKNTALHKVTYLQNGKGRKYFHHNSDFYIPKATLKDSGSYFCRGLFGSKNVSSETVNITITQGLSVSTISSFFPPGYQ

In the test with human FcγRIIa(R) (human), “GpH7-B3 variant L234G/GpL16-k0 (antibody)” registered a relative binding activity (% of GpH7-B3/GpL16-k0) of 9.
In test [1], GpH7-B3 Y296K/GpL16-k0 (antibody) returned a relative binding activity (% of GpH7-B3/GpL16-k0) of 21.
In turn, “GpH7-B3 variant G236K/GpL16-k0 (antibody)” yielded a relative binding activity (% of GpH7-B3/GpL16-k0) with human FcγRIIa(R) (human) of 9.
Take GpH7-B3 Y296P/GpL16-k0 (antibody): the relative binding activity (% of GpH7-B3/GpL16-k0) in test [1] is 8.
Still for that read-out and setting: the same measure for GpH7-B3 S324K/GpL16-k0 (antibody): 74; for GpH7-B3 Y300K/GpL16-k0 (antibody): 35.
In turn, “GpH7-B3 variant E269W/GpL16-k0 (antibody)” showed a relative binding activity (% of GpH7-B3/GpL16-k0) in test [2] of 9.
On to “GpH7-B3 variant V266F/GpL16-k0 (antibody)”, for which, in the test with human FcγRIIa(H) (human), the relative binding activity (% of GpH7-B3/GpL16-k0) was determined as 8.
Consider GpH7-B3 S298R/GpL16-k0 (antibody), for which the relative binding activity (% of GpH7-B3/GpL16-k0) in test [1] was 20.
In turn, “GpH7-B3 variant G237A/GpL16-k0 (antibody)” displayed a relative binding activity (% of GpH7-B3/GpL16-k0) in the test with human FcγRIIa(H) (human) of 9.
In test [1], GpH7-B3 Y296R/GpL16-k0 (antibody) registered a relative binding activity (% of GpH7-B3/GpL16-k0) of 38.
Still for that read-out and setting: to GpH7-B3 Y296G/GpL16-k0 (antibody) belongs 21.
In the case of “GpH7-B3 variant E269I/GpL16-k0 (antibody)”, the relative binding activity (% of GpH7-B3/GpL16-k0) with FcγRIIb (human) [3] was determined as 9.
In the case of “GpH7-B3 variant S239W/GpL16-k0 (antibody)”, in the test with human FcγRIIa(H) (human), the relative binding activity (% of GpH7-B3/GpL16-k0) is 9.
For the substance GpH7-B3 S298W/GpL16-k0 (antibody), the relative binding activity (% of GpH7-B3/GpL16-k0) in test [1] is 11; in the test with FcγRIIb (human) [4], 9.
The substance GpH7-B3 S324P/GpL16-k0 (antibody) displayed a relative binding activity (% of GpH7-B3/GpL16-k0) in test [1] of 35.
Still for that read-out and setting: the same measure for GpH7-B3 S298P/GpL16-k0 (antibody): 0.
For “GpH7-B3 variant G237P/GpL16-k0 (antibody)”, the relative binding activity (% of GpH7-B3/GpL16-k0) with human FcγRIIa(R) (human) worked out at 8.
Regarding GpH7-B3 S298K/GpL16-k0 (antibody), the relative binding activity (% of GpH7-B3/GpL16-k0) in test [1] came to 25.
The same measure, in the same setting: to GpH7-B3 Y300P/GpL16-k0 (antibody) belongs -1.
The same measure, in the same setting: to GpH7-B3 S298G/GpL16-k0 (antibody) belongs 59.
For “GpH7-B3 variant S239R/GpL16-k0 (antibody)”, the relative binding activity (% of GpH7-B3/GpL16-k0) with human FcγRIIa(R) (human) was 8.
Substance GpH7-B3 Q295W/GpL16-k0 (antibody) had a relative binding activity (% of GpH7-B3/GpL16-k0) in test [1] of 10.
For the substance “GpH7-B3 variant E269H/GpL16-k0 (antibody)”, the relative binding activity (% of GpH7-B3/GpL16-k0) with FcγRIIb (human) [3] was 8.
In turn, GpH7-B3 Q295Y/GpL16-k0 (antibody) showed a relative binding activity (% of GpH7-B3/GpL16-k0) in test [1] of 49.
Same read-out and setting: to GpH7-B3 S298Y/GpL16-k0 (antibody) belongs 71; to GpH7-B3 Y300R/GpL16-k0 (antibody), 12.
